{"source": "patent US20180162938A1", "about": "(GANYMED PHARMACEUTICALS, published 2018)", "molecules": {"B1": {"name": "murine monoclonal antibody muMAB 67A (antibody, V domains shown)", "VH": "EVQLQQSGPELVKPGASMKISCKASGYSFTGYTMNWVKQSHGKNLEWIGLINPYNGGIIYNQKFKGKATLTVDKSSSTAYMELLSLTSEDSAVFYCARDFGYVLDYWGQGTTLTVSS", "VL": "QIVLTQSPAIMSASPGEKVTITCSASSSVSYMHWFQQKPGTSPKLWIYSTSNLASGVPARFSGSGSGTSYSLTISRVAAEDAATYYCQQRSTYPPWTFGGGTKLEIK"}}, "key": {"[1]": {"target": "T1, human CLDN6 (claudin 6), full length (human, UniProt P56747 1-220)", "T1 construct": "Expressed untagged from vector p3953 in HEK293T, HEK293 and CHO-K1 cells; endogenous in NEC8 and OV90 cells; In the Western blots it stood in denatured cell lysate; also called wild-type CLDN6", "T1 sequence": "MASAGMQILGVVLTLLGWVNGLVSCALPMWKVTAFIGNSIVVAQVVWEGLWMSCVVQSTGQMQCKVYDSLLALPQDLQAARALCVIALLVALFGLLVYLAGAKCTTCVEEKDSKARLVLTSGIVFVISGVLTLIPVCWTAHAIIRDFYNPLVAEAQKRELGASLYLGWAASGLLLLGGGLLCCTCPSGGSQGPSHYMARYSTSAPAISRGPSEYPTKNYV", "experiment": "flow cytometry, HEK293T transiently co-transfected with the claudin and a fluorescence reporter; other quadrants printed: Q1 0,09, Q3 75,0…, Q4 24,73"}, "[2]": {"target": "CLDN6 SNP (single nucleotide polymorphism) variant I143V (human) (UniProt P56747)", "experiment": "flow cytometry, HEK293T transiently co-transfected with the claudin and a fluorescence reporter; other quadrants printed: Q1 0,18, Q3 64,8…, Q4 34,5…"}, "[3]": {"target": "human CLDN3 (claudin 3) (human) (UniProt O15551)", "sequence (O15551 whole entry)": "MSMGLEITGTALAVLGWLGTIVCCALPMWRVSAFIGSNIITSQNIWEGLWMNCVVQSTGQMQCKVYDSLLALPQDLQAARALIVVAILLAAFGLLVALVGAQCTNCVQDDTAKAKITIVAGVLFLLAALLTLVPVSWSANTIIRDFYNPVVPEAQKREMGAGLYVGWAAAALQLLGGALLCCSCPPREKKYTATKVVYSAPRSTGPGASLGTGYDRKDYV", "experiment": "flow cytometry, HEK293T transiently co-transfected with the claudin and a fluorescence reporter; other quadrants printed: Q1 0,32, Q3 63,10, Q4 36,2…"}, "[4]": {"target": "human CLDN4 (claudin 4) (human) (UniProt O14493)", "sequence (O14493 whole entry)": "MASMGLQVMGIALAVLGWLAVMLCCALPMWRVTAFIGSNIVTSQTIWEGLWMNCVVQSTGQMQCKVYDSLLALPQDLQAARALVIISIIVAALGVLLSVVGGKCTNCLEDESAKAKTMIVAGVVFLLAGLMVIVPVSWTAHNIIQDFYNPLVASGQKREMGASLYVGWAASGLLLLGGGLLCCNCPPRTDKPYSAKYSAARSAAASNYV", "experiment": "flow cytometry, HEK293T transiently co-transfected with the claudin and a fluorescence reporter; other quadrants printed: Q1 0,47, Q3 51,89, Q4 46,45"}, "[5]": {"target": "human CLDN9 (claudin 9) (human) (UniProt O95484)", "sequence (O95484 whole entry)": "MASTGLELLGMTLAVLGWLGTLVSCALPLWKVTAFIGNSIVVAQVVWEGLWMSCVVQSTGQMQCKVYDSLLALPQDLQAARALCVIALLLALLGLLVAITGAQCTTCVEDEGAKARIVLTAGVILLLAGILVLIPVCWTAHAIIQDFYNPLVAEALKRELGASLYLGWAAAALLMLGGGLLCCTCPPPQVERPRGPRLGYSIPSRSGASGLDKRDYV", "experiment": "flow cytometry, HEK293T transiently co-transfected with the claudin and a fluorescence reporter; other quadrants printed: Q1 0,65, Q3 53,91, Q4 44,03"}, "[6]": {"target": "human CLDN3 (claudin 3) (human) (UniProt O15551)", "experiment": "flow cytometry, HEK293T transiently co-transfected with the claudin and a fluorescence reporter; positive control, by the legend MAB4620; other quadrants printed: Q1 37,91, Q3 29,94, Q4 0,76"}, "[7]": {"target": "CLDN6 SNP (single nucleotide polymorphism) variant I143V (human) (UniProt P56747)", "experiment": "flow cytometry, HEK293T transiently co-transfected with the claudin and a fluorescence reporter; positive control, by the legend MAB3656; other quadrants printed: Q1 47,20, Q3 20,26, Q4 0,33"}, "[8]": {"target": "T1, human CLDN6 (claudin 6), full length", "experiment": "flow cytometry, HEK293T transiently co-transfected with the claudin and a fluorescence reporter; positive control, by the legend MAB3656; other quadrants printed: Q1 58,39, Q3 18,6…, Q4 0,13"}, "[9]": {"target": "T1, human CLDN6 (claudin 6), full length", "experiment": "flow cytometry saturation binding (median fluorescence), HEK293 cells stably expressing human CLDN6"}}}
{"molecule": "Isotype (antibody)", "values": [{"measurement": "percent of events in Q2 (reporter-positive, antibody-positive)", "setting": "[1]", "value": 0.12}, {"measurement": "percent of events in Q2 (reporter-positive, antibody-positive)", "setting": "[2]", "value": 0.44}, {"measurement": "percent of events in Q2 (reporter-positive, antibody-positive)", "setting": "[3]", "value": 0.37}, {"measurement": "percent of events in Q2 (reporter-positive, antibody-positive)", "setting": "[4]", "value": 1.18}, {"measurement": "percent of events in Q2 (reporter-positive, antibody-positive)", "setting": "[5]", "value": 1.42}]}
{"molecule": "mouse anti-CLDN3 IgG2a (R&D Systems, MAB4620) (antibody)", "values": [{"measurement": "percent of events in Q2 (reporter-positive, antibody-positive)", "setting": "[6]", "value": 31.4}]}
{"molecule": "mouse anti-CLDN6 IgG2b (R&D Systems, MAB3656) (antibody)", "values": [{"measurement": "percent of events in Q2 (reporter-positive, antibody-positive)", "setting": "[7]", "value": 32.2}, {"measurement": "percent of events in Q2 (reporter-positive, antibody-positive)", "setting": "[8]", "value": 22.8}]}
{"molecule": "B1", "values": [{"measurement": "EC50 (read off the curve)", "setting": "[9]", "value": "~0.4", "unit": "µg/mL"}]}
